What all share (assay): two-hybrid library CCmax;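 also: natural log of median RNA to DNA barcode read ratio; higher means stronger binding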
In one assay the target is T1, 4H794-AA.
T1 chain: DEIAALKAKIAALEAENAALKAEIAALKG
The settings on record: mean of both orientations.

A further assay concerns the target T2, 4H881-AA.
T2 chain: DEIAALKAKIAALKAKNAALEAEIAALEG
The settings on record: mean of both orientations.

Another assay deals with T3, 4H3001-AA.
T3 chain: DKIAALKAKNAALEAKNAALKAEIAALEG
The conditions noted are these: mean of both orientations.

A further assay concerns the target T4, 4H2949-AA.
T4 chain: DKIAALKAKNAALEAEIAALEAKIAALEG
The settings on record: mean of both orientations.

The target of a further assay is T5, 4H2732-AA.
T5 chain: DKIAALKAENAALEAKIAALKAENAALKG
The conditions noted are these: mean of both orientations.

The target of the next assay is T6, 4H2883-AA.
T6 chain: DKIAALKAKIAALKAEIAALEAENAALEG
The settings on record: mean of both orientations.

For the next assay, the target named is T7, 4H566-AA.
T7 chain: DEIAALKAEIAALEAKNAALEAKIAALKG
The conditions noted are these: mean of both orientations.

Another assay has as its target T8, 4H406-AA.
T8 chain: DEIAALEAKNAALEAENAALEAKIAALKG
The settings on record: mean of both orientations.

The target in the next assay is T9, 4H234-AA.
T9 chain: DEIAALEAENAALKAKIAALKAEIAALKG
The settings on record: mean of both orientations.

The target of another assay is T10, 4H347-AA.
T10 chain: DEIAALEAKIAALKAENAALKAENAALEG
The settings on record: mean of both orientations.

A further assay addresses T11, 4H2354-AA.
T11 chain: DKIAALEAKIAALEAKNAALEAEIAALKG
The conditions noted are these: mean of both orientations.

Another assay concerns the target T12, 4H56-AA.
T12 chain: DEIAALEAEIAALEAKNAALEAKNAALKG
The settings on record: mean of both orientations.

A further assay concerns the target T13, 4H2754-AA.
T13 chain: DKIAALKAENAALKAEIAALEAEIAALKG
The settings on record: mean of both orientations.

The next assay addresses T14, 4H3438-AA.
T14 chain: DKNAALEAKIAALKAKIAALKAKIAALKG
The settings on record: mean of both orientations.

The target in the next assay is T15, 4H3427-AA.
T15 chain: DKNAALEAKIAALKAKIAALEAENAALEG
The settings on record: mean of both orientations.

Another assay has as its target T16, 4H2277-AA.
T16 chain: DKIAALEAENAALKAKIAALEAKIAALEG
The conditions noted are these: mean of both orientations.

In another assay the target is T17, 4H3844-AA.
T17 chain: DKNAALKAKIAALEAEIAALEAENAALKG
The conditions noted are these: mean of both orientations.

The next assay concerns the target T18, 4H2505-AA.
T18 chain: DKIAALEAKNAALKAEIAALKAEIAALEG
The settings on record: mean of both orientations.

For the next assay, the target named is T19, 4H3112-AA.
T19 chain: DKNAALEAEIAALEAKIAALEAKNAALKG
The settings on record: mean of both orientations.

In a further assay the target is T20, 4H2642-AA.
T20 chain: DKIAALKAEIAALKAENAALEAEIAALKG
The conditions noted are these: mean of both orientations.

A further assay addresses T21, 4H3414-AA.
T21 chain: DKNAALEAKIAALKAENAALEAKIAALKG
The settings on record: mean of both orientations.

The next assay concerns the target T22, 4H2903-AA.
T22 chain: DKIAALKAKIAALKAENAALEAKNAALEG
The conditions noted are these: mean of both orientations.

For a further assay, the target named is T23, 4H3782-AA.
T23 chain: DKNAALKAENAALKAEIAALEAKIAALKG
The settings on record: mean of both orientations.

For the next assay, the target named is T24, 4H3595-AA.
T24 chain: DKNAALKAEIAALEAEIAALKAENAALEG

The next assay has as its target T25, 4H3939-AA.
T25 chain: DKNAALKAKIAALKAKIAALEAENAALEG
The conditions noted are these: mean of both orientations.

Another assay addresses T26, 4H2621-AA.
T26 chain: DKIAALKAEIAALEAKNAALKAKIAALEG
The settings on record: mean of both orientations.

The target of another assay is T27, 4H483-AA.
T27 chain: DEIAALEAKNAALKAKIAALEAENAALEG
The conditions noted are these: mean of both orientations.

The next assay concerns the target T28, 4H3969-AA.
T28 chain: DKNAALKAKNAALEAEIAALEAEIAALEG
The settings on record: mean of both orientations.

The target of another assay is T29, 4H3049-AA.
T29 chain: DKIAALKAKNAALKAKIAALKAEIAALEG
The conditions noted are these: mean of both orientations.

In the next assay the target is T30, 4H380-AA.
T30 chain: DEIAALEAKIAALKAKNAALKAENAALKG
The conditions noted are these: mean of both orientations.

For another assay, the target named is T31, 4H2728-AA.
T31 chain: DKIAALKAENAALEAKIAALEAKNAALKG
The conditions noted are these: mean of both orientations.

Like-named read-outs stand apart in the source and are kept apart here.

In the case of DKIAALEAEIAALKAKNAALEAKIAALEG [4H2165-AA], the interaction score with 4H794-AA is -1.31; in the assay with 4H881-AA it was 0.00404; with 4H3001-AA, -1.67; in the assay with 4H2949-AA, -1.21; with 4H2732-AA it was -1.36; in the assay with 4H2883-AA it was -1.67. Besides, the interaction score is 0.482 in the assay with 4H566-AA; -1.15 with 4H406-AA; -1.27 in the assay with 4H234-AA; -1.3 with 4H347-AA; -1.76 in the assay with 4H2354-AA; -0.766 in the assay with 4H56-AA. Further, the interaction score with 4H2754-AA is -0.0505; in the assay with 4H3438-AA, -1.07; with 4H3427-AA, -1.3; with 4H2277-AA, -1.36; with 4H3844-AA, -1.35; with 4H2505-AA, -1.7. For the same molecule, the interaction score with 4H3112-AA is -0.868; with 4H2642-AA, 0.223.

With DKNAALKAEIAALEAENAALEAKIAALKG [4H3606-AA], the interaction score with 4H794-AA is -0.14; with 4H881-AA it was 2.32; with 4H566-AA it was -0.683; with 4H3844-AA it was -1.17.

For DENAALEAEIAALEAKIAALEAKNAALKG [4H1064-AA], the interaction score is -0.952 in the assay with 4H3414-AA; 1.45 with 4H2903-AA; -0.855 with 4H3782-AA; 0.0501 with 4H3595-AA; 2.3 in the assay with 4H3939-AA; -1.07 in the assay with 4H2621-AA. The interaction score with 4H483-AA was -0.857; with 4H3969-AA, -1.31; with 4H3049-AA, 0.863; with 4H380-AA, -0.648; with 4H2728-AA, -1.43.

Consider DEIAALEAENAALKAKNAALKAEIAALEG [4H249-AA], for which the interaction score with 4H3414-AA was 0.535; in the assay with 4H2903-AA it was -0.757; with 4H3782-AA it was 1.43; with 4H3595-AA (mean of both orientations), -1.4; in the assay with 4H3001-AA, -1.12; with 4H2732-AA, -0.302. Moreover, the interaction score with 4H3939-AA is -1.85; with 4H406-AA, 1.19; in the assay with 4H2621-AA, -1.28; with 4H347-AA, 0.274; with 4H56-AA, -1.62; with 4H3438-AA it was -1.6. For the same molecule, the interaction score was -1.76 with 4H483-AA; -1.58 with 4H3969-AA; -1.71 with 4H3049-AA; -1.27 with 4H380-AA; -0.387 in the assay with 4H2728-AA.

As for DENAALEAENAALKAKIAALKAEIAALEG [4H1257-AA], the interaction score in the assay with 4H3414-AA is -1.01; with 4H2903-AA, -1.62; in the assay with 4H3782-AA, 2.21; in the assay with 4H3595-AA (mean of both orientations), 0.807; with 4H3939-AA, -1.27; with 4H2621-AA, -0.883. Besides, the interaction score with 4H483-AA is -1.91; with 4H3969-AA, 0.285; with 4H3427-AA, -1.17; with 4H3049-AA, -0.309; with 4H3112-AA it was 0.173; in the assay with 4H380-AA it was -1.14. The molecule also showed an interaction score with 4H2728-AA of -0.459.

With DKIAALEAENAALKAEIAALKAKIAALEG [4H2253-AA], the interaction score in the assay with 4H3001-AA is -1.42; in the assay with 4H2732-AA it was -1.3; with 4H406-AA, -1.67; in the assay with 4H347-AA it was -1.66; with 4H56-AA it was -1.23; with 4H3438-AA, -1.2.
